This note sets out measurements from the RNAGym collection of RNA variant scans (doi:10.7554/elife.80360).

The labels stand for the following.
B1: HDV Ribozyme (parent)
chain: GGCCGGCAUGGUCCCAGCCUCCUCGCUGGCGCCGGCUGGGCAACAUUCCGAGGGGACCGUCCCCUCGGUAAUGGCGAAUGGGACCCA

This data set covers variants of B1. As to the kind of experiment: self-cleavage, relative activity (ratio to wild type); higher = more cleavage; co-transcriptional.
Take U9A C33A: the self-cleavage came out at 0.185.

As to C49G G80A, the self-cleavage amounted to 0.465.

With C3A C63U, the self-cleavage was 0.559.

On to G10A U12A, for which the self-cleavage is 0.0733.

In the case of C7G C85G, the self-cleavage was 0.237.

With G10U G53C, the self-cleavage was 0.773.

For C24U C84G, the self-cleavage turned out to be 0.157.

On to C49U C75U, for which the self-cleavage came out at 0.13.

On to G1C C19A, for which the self-cleavage turned out to be 0.201.

On to G1A U79C, for which the self-cleavage was 0.119.

For C13G G73U, the self-cleavage is 0.0361.

Turning to C44G G52C, the self-cleavage is 0.724.

With A43U C58G, the self-cleavage stood at 0.7.

Take A43U C58A: the self-cleavage came to 0.614.

For the variant A8G A56G, the self-cleavage turned out to be 0.719.

Take U9A A51U: the self-cleavage is 0.914.

With C36U G81A, the self-cleavage was 0.24.

For the variant G39A C84U, the self-cleavage came out at 0.321.

With C18G G40U, the self-cleavage turned out to be 0.0489.

Consider G6U C32U, for which the self-cleavage amounted to 0.787.

Regarding G1C U27A, the self-cleavage came to 0.185.

As for C36U U46C, the self-cleavage turned out to be 0.481.

Turning to G11U A45G, the self-cleavage turned out to be 0.587.

For the variant C19U A77U, the self-cleavage was determined as 0.107.

For the variant C22G U37G, the self-cleavage came out at 0.0831.

For C32G G59A, the self-cleavage amounted to 0.0489.

Take U12C U72G: the self-cleavage stood at 0.128.

U23C G40A: the self-cleavage worked out at 0.8.

Take C3G G76C: the self-cleavage came to 0.65.

C75G A87G: the self-cleavage worked out at 0.108.

On to G17A G31C, for which the self-cleavage came to 0.188.

As to G68C G74C, the self-cleavage stood at 0.181.

Regarding C19G G53C, the self-cleavage was determined as 0.0852.

With C13U C63G, the self-cleavage was found to be 0.233.

U47G C86U: the self-cleavage was 1.11.

Regarding C44U G59C, the self-cleavage was determined as 0.997.

For the variant U37A G73A, the self-cleavage was 0.0346.

Turning to G10A C48G, the self-cleavage is 0.671.

Turning to C21G G31A, the self-cleavage was 0.18.

Regarding G29A U47A, the self-cleavage is 0.148.

In the case of C21U G55U, the self-cleavage turned out to be 0.17.

For C57U G59A, the self-cleavage was 1.07.

As for U23C G82U, the self-cleavage turned out to be 0.312.

For the variant C33U G82C, the self-cleavage stood at 0.245.

Regarding U20G U72G, the self-cleavage was 0.

As to G40A A56G, the self-cleavage came out at 1.11.

Turning to U12C U23C, the self-cleavage amounted to 0.755.

Regarding G59A C85A, the self-cleavage amounted to 1.1.

With C18A C41A, the self-cleavage is 0.125.

Consider G31U C32G, for which the self-cleavage was determined as 0.0978.

Take C18G G80A: the self-cleavage came to 0.0563.

Take C4U U20C: the self-cleavage came out at 0.0437.

On to G34A A43C, for which the self-cleavage was 0.119.

Regarding G2C C75A, the self-cleavage stood at 0.

U23A U72A: the self-cleavage was 0.773.

In the case of G29A U46C, the self-cleavage stood at 0.138.

As to G29A U46G, the self-cleavage is 0.166.

As to C22G A43G, the self-cleavage turned out to be 0.

In the case of C32A A78C, the self-cleavage was determined as 0.0665.

For C22G C44G, the self-cleavage was 0.0437.

With G73C A78U, the self-cleavage is 0.155.

Take G81U C86G: the self-cleavage amounted to 0.27.

On to A42G G81C, for which the self-cleavage was 0.0386.

Regarding U23A C26G, the self-cleavage amounted to 0.978.

Consider A16C C86G, for which the self-cleavage came to 0.653.

On to U37C G40C, for which the self-cleavage came out at 0.262.

C14A A43G: the self-cleavage was determined as 0.

C24U U27G: the self-cleavage was 0.431.

Take G34U A56C: the self-cleavage is 0.219.

For G53U G81U, the self-cleavage is 0.28.

As to C14G A78C, the self-cleavage was found to be 0.108.

As to C15A G39U, the self-cleavage was 0.177.

Regarding U9A G50U, the self-cleavage stood at 1.31.

As to G55A A83U, the self-cleavage was determined as 0.415.

Take C58U G68U: the self-cleavage is 1.07.

On to G28U G54U, for which the self-cleavage amounted to 0.0712.

Consider U37A C58A, for which the self-cleavage came out at 0.225.

Consider C26U A70C, for which the self-cleavage was 1.08.

Regarding C63G G81A, the self-cleavage amounted to 0.453.

For the variant C58U A78U, the self-cleavage was 0.277.

With C48U G73U, the self-cleavage amounted to 0.521.

C13U C21G: the self-cleavage came out at 0.115.

On to U27A G28C, for which the self-cleavage was 0.

As for C44G C48A, the self-cleavage amounted to 0.543.

Take C57G C75G: the self-cleavage is 0.185.

Regarding C48G G73A, the self-cleavage was 0.623.

For A16G U69G, the self-cleavage amounted to 0.962.

Regarding C24G C30A, the self-cleavage came to 0.0898.

For C13A G50U, the self-cleavage came out at 0.282.

Take C18U C30G: the self-cleavage stood at 0.0583.

With G54A U65A, the self-cleavage stood at 0.267.

As to G68A A70U, the self-cleavage stood at 1.12.

Regarding G59U G82C, the self-cleavage came out at 0.228.

On to C48U U72G, for which the self-cleavage amounted to 0.639.

In the case of G34A G67U, the self-cleavage was determined as 0.0811.

Consider C4U C13U, for which the self-cleavage stood at 0.516.

With U46A U65C, the self-cleavage was determined as 0.65.

For A56G C58A, the self-cleavage amounted to 1.12.

Turning to G17C A78G, the self-cleavage came to 0.0536.

On to C22G G74A, for which the self-cleavage turned out to be 0.0241.

Consider G39A A43G, for which the self-cleavage is 0.0707.

With U65C A70U, the self-cleavage worked out at 0.789.

Regarding C62U A83G, the self-cleavage amounted to 0.818.

A71G A77G: the self-cleavage is 0.88.

Consider C58A C86A, for which the self-cleavage turned out to be 1.19.

In the case of G1C G55A, the self-cleavage worked out at 0.106.

G39U C62U: the self-cleavage was determined as 0.918.

Consider A83C C85G, for which the self-cleavage was determined as 0.175.

In the case of A16G A70U, the self-cleavage was 0.499.

Regarding G6U U46C, the self-cleavage worked out at 0.133.

As to G74U A78G, the self-cleavage was found to be 0.185.

On to C19U G81C, for which the self-cleavage stood at 0.101.

For the variant C4A C63A, the self-cleavage worked out at 0.354.

For the variant C32U U37A, the self-cleavage came to 0.252.

In the case of C24U C61A, the self-cleavage was 0.591.

With C19G A77C, the self-cleavage is 0.111.

As to U65C G76U, the self-cleavage is 1.14.

On to G5C C7A, for which the self-cleavage amounted to 0.119.

Take G2C U20A: the self-cleavage stood at 0.0361.

With G28C U72C, the self-cleavage worked out at 0.

For the variant G25U C41A, the self-cleavage worked out at 0.125.

Take U23C U79C: the self-cleavage turned out to be 0.232.

With G34A A78G, the self-cleavage was 0.157.

Regarding G11C C18U, the self-cleavage is 0.0992.

For the variant C22G G59U, the self-cleavage was found to be 0.0817.

With U23G G50A, the self-cleavage came to 0.614.

Take U27A G40U: the self-cleavage was determined as 0.793.

Take C21U G35A: the self-cleavage was 0.108.

Turning to U46A U47G, the self-cleavage was 0.369.

Turning to G76C A78G, the self-cleavage was 0.944.

C41U U69G: the self-cleavage amounted to 0.946.

With C3G C58G, the self-cleavage was 0.796.

Take A45U A70U: the self-cleavage stood at 0.989.

For the variant C21A G55A, the self-cleavage is 0.129.

On to G29U A56C, for which the self-cleavage worked out at 0.202.

On to C26G A78G, for which the self-cleavage came to 0.633.

With G17C U37G, the self-cleavage was 0.

Turning to G50U U72C, the self-cleavage came out at 0.487.

C41A C64A: the self-cleavage turned out to be 0.794.

Consider G25C G67U, for which the self-cleavage is 0.

As to C36G A51C, the self-cleavage was 0.0665.

A56G U60C: the self-cleavage turned out to be 1.21.

Turning to C32U C62A, the self-cleavage amounted to 0.906.

For the variant U37G C75G, the self-cleavage was 0.

Regarding U37C C57A, the self-cleavage worked out at 1.

In the case of U12C C57U, the self-cleavage came to 0.293.

For U47C C85A, the self-cleavage turned out to be 0.587.

C26G C63U: the self-cleavage is 0.743.

Take G52U A87U: the self-cleavage was found to be 1.

U47G A78U: the self-cleavage was found to be 0.196.

For C21U C75A, the self-cleavage amounted to 0.0739.

Consider C13A A78G, for which the self-cleavage came to 0.0773.

For C22G C26A, the self-cleavage was 0.156.

Consider A42C G73U, for which the self-cleavage was found to be 0.0791.

Regarding G50C G80U, the self-cleavage was 0.225.

On to U9A G54U, for which the self-cleavage worked out at 1.06.

With U65A G82C, the self-cleavage stood at 0.614.

Regarding G6C C75A, the self-cleavage is 0.0723.

In the case of U47C C61G, the self-cleavage came out at 0.65.

C18A C21G: the self-cleavage amounted to 0.131.

As to C41U C85U, the self-cleavage was 0.845.

As to U27G C63A, the self-cleavage was found to be 1.07.

Regarding G11U C63U, the self-cleavage came to 0.364.

As to G35A U60A, the self-cleavage came out at 0.596.

Turning to C18A G29A, the self-cleavage came out at 0.0604.

Take G35U A56C: the self-cleavage was 0.358.

For the variant G5A G17U, the self-cleavage stood at 0.123.
